In data set [1] the test system is TIP5/TAM-AT (Homo sapiens). Kind of data set: filter binding (Scatchard). The settings on record: 5 mM Mg2+, protein preincubated with 4x excess unlabeled MCS-RNA, EMSA: 12 mM Tris-HCl pH 8.0, 100 mM KCl, 5 mM MgCl2, 0.1 mM EDTA, 0.5 mM DTT, 3% glycerol, on ice, filter binding: 10 mM Tris-HCl pH 7.4, 100 mM KCl.
Data set [2] concerns the target T1, TIP5/TAM (Homo sapiens, UniProt Q9UIF9 516-623).
T1 sequence: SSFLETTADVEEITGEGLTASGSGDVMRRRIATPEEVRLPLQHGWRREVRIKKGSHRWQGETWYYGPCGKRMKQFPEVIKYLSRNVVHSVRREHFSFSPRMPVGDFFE
Description: NMR titration; negligible shift changes; EMSA: 12 mM Tris-HCl pH 8.0, 100 mM KCl, 5 mM MgCl2, 0.1 mM EDTA, 0.5 mM DTT, 3% glycerol, on ice; filter binding: 10 mM Tris-HCl pH 7.4, 100 mM KCl, 5 mM MgCl2, on ice; NMR: 20 mM Na phosphate pH 7.0, 50 mM NaCl, 1 mM DTT, 298 K (TAM-AT) or 293 K (TAM). The settings on record: protein: recombinant; tags: His6-GB1, TEV-removed; label: none; single-stranded.

In data set [3] the target is T1, TIP5/TAM. Description: NMR titration; EMSA: 12 mM Tris-HCl pH 8.0, 100 mM KCl, 5 mM MgCl2, 0.1 mM EDTA, 0.5 mM DTT, 3% glycerol, on ice; filter binding: 10 mM Tris-HCl pH 7.4, 100 mM KCl, 5 mM MgCl2, on ice; NMR: 20 mM Na phosphate pH 7.0, 50 mM NaCl, 1 mM DTT, 298 K (TAM-AT) or 293 K (TAM). The settings on record: protein: recombinant; tags: His6-GB1, TEV-removed; label: none; hairpin. (A gel shift assay detects complexes by their altered migration in electrophoresis.)

As a reminder, the Kd is the equilibrium constant for the complex coming apart. Read a low Kd as a tighter complex. Regarding pRNA (mouse rDNA -204/-1), the Kd in data set [1] came to 5.5 nM.

B1: 13-mer poly-U RNA (ssRNA)
RNA: UUUUUUUUUUUUU
Regarding B1, the binding result in data set [2] was “no binding”.

B2: Xist A-repeat RNA hairpin (structured_RNA)
RNA: GGCGCAUCGGCGCC
As for B2, the binding result in data set [3] is on record as “binds”.

The values above are taken from paper PMC4446428, “A novel RNA binding surface of the TAM domain of TIP5/BAZ2A mediates epigenetic regulation of rRNA genes”.
